Source: patent US7067619 (LA JOLLA CANCER RESEARCH FOUNDATION, dated 2006)
Ends that are not written are not given here.

Key:
[1] = target: T1, αvβ3 integrin isolated from human placental extract (human, UniProt P06756 31-1048; P05106 27-788); assay: phage panning on coated integrin
T1 construct: isolated on GRGDSPK-Sepharose; said to be primarily αvβ3
Description: (§1) In the first panning, the integrins were coated at 5 µg per well, and the library pool was incubated for 4 hours at 25° C. in TBS buffer containing 1% bovine serum albumin and 1 mM MnCl_2 (α_5β_1, α_vβ_3) 1 mM MgCl_2 ($\alphaIIb\beta_3$) or 1 mM CaCl_2 (α_vβ_5).

[2] = target: αvβ5 integrin isolated from human placental extract (human, UniProt P06756 31-1048; P18084 24-799); assay: phage panning on coated integrin
αvβ5 integrin isolated from human placental extract, sequence (P06756 31-1048, chain 1 of 2): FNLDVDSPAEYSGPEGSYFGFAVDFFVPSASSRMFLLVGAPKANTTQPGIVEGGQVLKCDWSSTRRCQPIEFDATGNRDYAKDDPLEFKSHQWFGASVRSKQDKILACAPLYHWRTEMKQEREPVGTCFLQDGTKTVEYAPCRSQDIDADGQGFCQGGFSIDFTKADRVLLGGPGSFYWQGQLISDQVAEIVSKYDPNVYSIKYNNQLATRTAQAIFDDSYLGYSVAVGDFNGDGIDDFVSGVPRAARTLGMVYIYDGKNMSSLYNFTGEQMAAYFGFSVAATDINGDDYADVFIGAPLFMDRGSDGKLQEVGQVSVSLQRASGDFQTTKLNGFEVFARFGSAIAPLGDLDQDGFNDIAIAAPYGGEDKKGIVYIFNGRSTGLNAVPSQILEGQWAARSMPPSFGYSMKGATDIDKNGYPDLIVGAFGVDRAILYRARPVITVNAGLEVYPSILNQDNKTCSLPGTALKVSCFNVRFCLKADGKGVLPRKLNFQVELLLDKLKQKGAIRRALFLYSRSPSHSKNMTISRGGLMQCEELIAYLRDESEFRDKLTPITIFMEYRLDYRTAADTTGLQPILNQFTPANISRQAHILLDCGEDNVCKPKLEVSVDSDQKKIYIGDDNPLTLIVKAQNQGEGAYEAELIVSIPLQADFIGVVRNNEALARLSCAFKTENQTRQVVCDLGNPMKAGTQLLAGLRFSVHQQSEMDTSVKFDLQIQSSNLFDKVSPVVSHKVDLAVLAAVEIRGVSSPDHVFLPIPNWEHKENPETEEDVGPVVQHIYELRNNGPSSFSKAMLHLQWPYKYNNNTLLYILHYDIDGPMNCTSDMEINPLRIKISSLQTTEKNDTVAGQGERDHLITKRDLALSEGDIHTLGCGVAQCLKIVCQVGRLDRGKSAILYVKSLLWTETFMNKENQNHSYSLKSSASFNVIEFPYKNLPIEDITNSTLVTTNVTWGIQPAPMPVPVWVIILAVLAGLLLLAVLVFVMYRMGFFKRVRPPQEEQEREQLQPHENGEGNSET
αvβ5 integrin isolated from human placental extract, sequence (P18084 24-799, chain 2 of 2): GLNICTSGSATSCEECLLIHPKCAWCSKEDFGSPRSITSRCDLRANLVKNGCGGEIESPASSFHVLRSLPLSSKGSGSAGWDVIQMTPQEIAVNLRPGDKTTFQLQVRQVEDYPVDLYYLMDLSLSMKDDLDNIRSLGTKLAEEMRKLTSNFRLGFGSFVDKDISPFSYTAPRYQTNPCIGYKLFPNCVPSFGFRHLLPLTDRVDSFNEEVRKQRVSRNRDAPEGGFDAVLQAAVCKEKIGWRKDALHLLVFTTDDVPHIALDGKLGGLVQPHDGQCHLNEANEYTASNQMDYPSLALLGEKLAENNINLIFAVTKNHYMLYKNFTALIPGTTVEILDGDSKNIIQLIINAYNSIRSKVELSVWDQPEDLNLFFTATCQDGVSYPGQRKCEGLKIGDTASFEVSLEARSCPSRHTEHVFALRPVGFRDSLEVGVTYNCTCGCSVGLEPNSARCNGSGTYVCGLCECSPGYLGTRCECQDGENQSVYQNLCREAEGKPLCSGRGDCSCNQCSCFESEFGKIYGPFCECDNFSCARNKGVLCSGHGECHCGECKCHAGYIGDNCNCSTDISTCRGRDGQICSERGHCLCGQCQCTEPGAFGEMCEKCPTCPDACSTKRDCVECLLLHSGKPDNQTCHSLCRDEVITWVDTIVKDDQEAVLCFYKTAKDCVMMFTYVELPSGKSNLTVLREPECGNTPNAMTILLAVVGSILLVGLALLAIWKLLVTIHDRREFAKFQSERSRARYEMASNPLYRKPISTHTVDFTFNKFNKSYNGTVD
Description: as §1

T1 sequence (P06756 31-1048, chain 1 of 2): as the sequence (P06756 31-1048, chain 1 of 2) above
T1 sequence (P05106 27-788, chain 2 of 2): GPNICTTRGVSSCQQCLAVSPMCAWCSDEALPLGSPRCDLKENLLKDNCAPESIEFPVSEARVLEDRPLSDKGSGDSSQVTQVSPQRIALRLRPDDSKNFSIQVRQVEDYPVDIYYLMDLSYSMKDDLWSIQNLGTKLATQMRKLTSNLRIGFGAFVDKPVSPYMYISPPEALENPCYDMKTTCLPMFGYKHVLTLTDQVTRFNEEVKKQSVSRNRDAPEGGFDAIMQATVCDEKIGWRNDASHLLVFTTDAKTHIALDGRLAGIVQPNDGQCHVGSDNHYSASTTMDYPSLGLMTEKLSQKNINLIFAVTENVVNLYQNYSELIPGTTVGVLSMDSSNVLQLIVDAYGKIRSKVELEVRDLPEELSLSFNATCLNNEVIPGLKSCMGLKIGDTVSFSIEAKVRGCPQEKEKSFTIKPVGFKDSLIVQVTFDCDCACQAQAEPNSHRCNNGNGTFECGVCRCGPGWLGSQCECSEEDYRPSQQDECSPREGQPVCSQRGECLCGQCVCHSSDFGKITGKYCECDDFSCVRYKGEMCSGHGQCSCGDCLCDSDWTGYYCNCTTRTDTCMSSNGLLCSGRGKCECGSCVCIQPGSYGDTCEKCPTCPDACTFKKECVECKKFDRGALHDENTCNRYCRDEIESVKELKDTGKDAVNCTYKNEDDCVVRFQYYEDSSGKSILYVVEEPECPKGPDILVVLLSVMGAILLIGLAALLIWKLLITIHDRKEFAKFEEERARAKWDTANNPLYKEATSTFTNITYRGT

Question: Does CRGDGIRFC (on fuse 5 phage, fused to pIII) [CRGDGIRFC phage] bind [1]?
Answer: Result: binds

Question: Does CYARGDSFC (on fuse 5 phage, fused to pIII) [CYARGDSFC phage] bind [2]?
Answer: Result: binds

Question: Does CVRRGDAFC (on fuse 5 phage, fused to pIII) [CVRRGDAFC phage] bind [1]?
Answer: Result: binds

Question: Does CSRGDTYLC (on fuse 5 phage, fused to pIII) [CSRGDTYLC phage] bind [1]?
Answer: Result: binds

Question: Does CDRGDSQSC (on fuse 5 phage, fused to pIII) [CDRGDSQSC phage] bind [1]?
Answer: Result: binds

Question: Does CLVRGDSLC (on fuse 5 phage, fused to pIII) [CLVRGDSLC phage] bind [2]?
Answer: Result: binds

B1: CLCRGDCIC phage (peptide)
peptide: CLCRGDCIC
modifications: not fully specified (bridges); also: two disulfide bonds, pairing not given here
notes: on fuse 5 phage, fused to pIII
Question: Does B1 bind [2]?
Answer: Result: binds

Question: Does CISRGDTFC (on fuse 5 phage, fused to pIII) [CISRGDTFC phage (αvβ3 selection)] bind [1]?
Answer: Result: binds

Question: Does CVTRGDHFC (on fuse 5 phage, fused to pIII) [CVTRGDHFC phage] bind [1]?
Answer: Result: binds

Question: Does CVTRGDNFC (on fuse 5 phage, fused to pIII) [CVTRGDNFC phage] bind [2]?
Answer: Result: binds

Question: Does CVLRGDNFC (on fuse 5 phage, fused to pIII) [CVLRGDNFC phage] bind [2]?
Answer: Result: binds

Question: Does CLRRGDSGC (on fuse 5 phage, fused to pIII) [CLRRGDSGC phage] bind [1]?
Answer: Result: binds

Question: Does CSRGDGRC (on fuse 5 phage, fused to pIII) [CSRGDGRC phage] bind [1]?
Answer: Result: binds

Question: Does CLRGDRVC (on fuse 5 phage, fused to pIII) [CLRGDRVC phage] bind [1]?
Answer: Result: binds

Question: Does CTRGDSIFC (on fuse 5 phage, fused to pIII) [CTRGDSIFC phage] bind [1]?
Answer: Result: binds

Question: Does CRGDNTFGC (on fuse 5 phage, fused to pIII) [CRGDNTFGC phage] bind [1]?
Answer: Result: binds

Question: Does CRGDAWPGC (on fuse 5 phage, fused to pIII) [CRGDAWPGC phage] bind [1]?
Answer: Result: binds

Question: Does CELRGDSAC (on fuse 5 phage, fused to pIII) [CELRGDSAC phage] bind [2]?
Answer: Result: binds

Question: Does CRGDSFVGC (on fuse 5 phage, fused to pIII) [CRGDSFVGC phage] bind [1]?
Answer: Result: binds

Question: Does CNARGDGFC (on fuse 5 phage, fused to pIII) [CNARGDGFC phage] bind [1]?
Answer: Result: binds

Question: Does CSRGDGAIC (on fuse 5 phage, fused to pIII) [CSRGDGAIC phage] bind [1]?
Answer: Result: binds

Question: Does CEVRGDRIC (on fuse 5 phage, fused to pIII) [CEVRGDRIC phage] bind [1]?
Answer: Result: binds

Question: Does CYSLGFLVC (on fuse 5 phage, fused to pIII) [CYSLGFLVC phage] bind [1]?
Answer: Result: binds

Question: Does CWRGDRAC (on fuse 5 phage, fused to pIII) [CWRGDRAC phage] bind [1]?
Answer: Result: binds

Question: Does CRGDKGWNC (on fuse 5 phage, fused to pIII) [CRGDKGWNC phage] bind [1]?
Answer: Result: binds

Question: Does CARRLDAPC (on fuse 5 phage, fused to pIII) [CARRLDAPC phage] bind [1]?
Answer: Result: binds

Question: Does CRVRGDSWC (on fuse 5 phage, fused to pIII) [CRVRGDSWC phage] bind [1]?
Answer: Result: binds

Question: Does CDLRGDTYC (on fuse 5 phage, fused to pIII) [CDLRGDTYC phage] bind [2]?
Answer: Result: binds

Question: Does CLVLPSTGC (on fuse 5 phage, fused to pIII) [CLVLPSTGC phage] bind [1]?
Answer: Result: binds

Question: Does CFRGDDRKC (on fuse 5 phage, fused to pIII) [CFRGDDRKC phage] bind [1]?
Answer: Result: binds

Question: Does CLSRGDVVC (on fuse 5 phage, fused to pIII) [CLSRGDVVC phage] bind [1]?
Answer: Result: binds

Question: Does CRGDGRNC (on fuse 5 phage, fused to pIII) [CRGDGRNC phage] bind [1]?
Answer: Result: binds

Question: Does CVVRGDTFC (on fuse 5 phage, fused to pIII) [CVVRGDTFC phage] bind [2]?
Answer: Result: binds

Question: Does CWTRGDSFC (on fuse 5 phage, fused to pIII) [CWTRGDSFC phage] bind [2]?
Answer: Result: binds

Question: Does CHTRGDTFC (on fuse 5 phage, fused to pIII) [CHTRGDTFC phage] bind [2]?
Answer: Result: binds

Question: Does CPRGDSTLC (on fuse 5 phage, fused to pIII) [CPRGDSTLC phage] bind [1]?
Answer: Result: binds

Question: Does CTTRGDSFC (on fuse 5 phage, fused to pIII) [CTTRGDSFC phage] bind [1]?
Answer: Result: binds

Question: Does CTTRSDSFC (on fuse 5 phage, fused to pIII) [CTTRSDSFC phage] bind [1]?
Answer: Result: binds

Question: Does CISRGDTFC (on fuse 5 phage, fused to pIII) [CISRGDTFC phage (αvβ5 selection)] bind [2]?
Answer: Result: binds

Question: Does CQARGDRPRC (on fuse 5 phage, fused to pIII) [CQARGDRPRC phage] bind [1]?
Answer: Result: binds

Question: Does CLHPNVRSC (on fuse 5 phage, fused to pIII) [CLHPNVRSC phage] bind [2]?
Answer: Result: binds

Question: Does CRGDTVYAC (on fuse 5 phage, fused to pIII) [CRGDTVYAC phage] bind [1]?
Answer: Result: binds

Question: Does CKTPGRLDC (on fuse 5 phage, fused to pIII) [CKTPGRLDC phage] bind [1]?
Answer: Result: binds

Question: Does CPDLLAQSC (on fuse 5 phage, fused to pIII) [CPDLLAQSC phage] bind [1]?
Answer: Result: binds

Question: Does CNRRGDNWGC (on fuse 5 phage, fused to pIII) [CNRRGDNWGC phage] bind [1]?
Answer: Result: binds

Question: Does CTRRGDATC (on fuse 5 phage, fused to pIII) [CTRRGDATC phage] bind [1]?
Answer: Result: binds

B2: CDCRGDCLC phage (peptide)
peptide: CDCRGDCLC
modifications: not fully specified (bridges); also: two disulfide bonds, pairing not given here
notes: as for B1
Question: Does B2 bind [2]?
Answer: Result: binds

Question: Does CRGDHGTLC (on fuse 5 phage, fused to pIII) [CRGDHGTLC phage] bind [1]?
Answer: Result: binds

Question: Does CEGRGDSFC (on fuse 5 phage, fused to pIII) [CEGRGDSFC phage] bind [2]?
Answer: Result: binds

Question: Does CEPRGDSFC (on fuse 5 phage, fused to pIII) [CEPRGDSFC phage] bind [2]?
Answer: Result: binds

Question: Does CNIRGDKIC (on fuse 5 phage, fused to pIII) [CNIRGDKIC phage] bind [1]?
Answer: Result: binds

Question: Does CAGRGDALC (on fuse 5 phage, fused to pIII) [CAGRGDALC phage] bind [1]?
Answer: Result: binds

Question: Does CGRGDSHHC (on fuse 5 phage, fused to pIII) [CGRGDSHHC phage] bind [1]?
Answer: Result: binds

Question: Does CLRGDIANC (on fuse 5 phage, fused to pIII) [CLRGDIANC phage] bind [1]?
Answer: Result: binds

Question: Does CRGDSLRC (on fuse 5 phage, fused to pIII) [CRGDSLRC phage] bind [1]?
Answer: Result: binds

Question: Does CVRRGDVFC (on fuse 5 phage, fused to pIII) [CVRRGDVFC phage] bind [2]?
Answer: Result: binds

Question: Does CRGDLAWVC (on fuse 5 phage, fused to pIII) [CRGDLAWVC phage] bind [1]?
Answer: Result: binds

Question: Does CTRGDSLDC (on fuse 5 phage, fused to pIII) [CTRGDSLDC phage] bind [1]?
Answer: Result: binds

Question: Does CRGDVFLC (on fuse 5 phage, fused to pIII) [CRGDVFLC phage] bind [2]?
Answer: Result: binds

Question: Does CNARGDKLC (on fuse 5 phage, fused to pIII) [CNARGDKLC phage] bind [1]?
Answer: Result: binds

Question: Does CGRGDLIHC (on fuse 5 phage, fused to pIII) [CGRGDLIHC phage] bind [1]?
Answer: Result: binds

Question: Does CWSISPYFC (on fuse 5 phage, fused to pIII) [CWSISPYFC phage] bind [1]?
Answer: Result: binds

Question: Does CGRGDTPTC (on fuse 5 phage, fused to pIII) [CGRGDTPTC phage] bind [2]?
Answer: Result: binds

Question: Does CEMRGDTFC (on fuse 5 phage, fused to pIII) [CEMRGDTFC phage] bind [2]?
Answer: Result: binds

Question: Does CRGDSHLQC (on fuse 5 phage, fused to pIII) [CRGDSHLQC phage] bind [1]?
Answer: Result: binds

Question: Does CWRGDTPC (on fuse 5 phage, fused to pIII) [CWRGDTPC phage] bind [1]?
Answer: Result: binds

Question: Does CRGDTYLIC (on fuse 5 phage, fused to pIII) [CRGDTYLIC phage] bind [2]?
Answer: Result: binds

Question: Does CPSRGDALC (on fuse 5 phage, fused to pIII) [CPSRGDALC phage] bind [1]?
Answer: Result: binds

Question: Does CSPRGDAGC (on fuse 5 phage, fused to pIII) [CSPRGDAGC phage] bind [1]?
Answer: Result: binds

Question: Does CRGDCCQSC (on fuse 5 phage, fused to pIII) [CRGDCCQSC phage] bind [2]?
Answer: Result: binds
